# In the supplement of paper PMC10126150:
# ± gives the standard deviation of the averaged measurements.
# System: ATP
# Assay: switch fluorescence ratio, 500 uM ATP over buffer (Cy3 cluster intensity, sum of 5 cycles each) (fold (ratio)); higher = stronger signal-on switching upon ATP binding; sequences stand for … in TCGTCGGCAGCGTCAGATGTGTATAAGAGACAGTTTTTTTTTTTTTTTTTTTTTTTTT…TC
# Conditions: aptamer strand: ATP DNA aptamer (quencher-CACCTGGGGGAGTATTGCGGAGGAAGG + anchor), 100 nM annealed; ATP concentration: 500 uM
# How it was run: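 Clusters carrying Cy3-labelled switching strands on a modified Illumina MiSeq flow-cell were annealed to 100 nM quencher-labelled ATP aptamer and imaged in selection buffer. They were imaged again after 15 min with 500 uM ATP at 22 °C, over five buffer/ATP cycles with NaOH stripping and re-annealing in between. For each cluster, the fluorescence ratio is the summed Cy3 intensity of the target cycles divided by that of the buffer cycles, averaged per switch-domain sequence. Clusters outside 100-1000 RFU were left out.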
# 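Also: ATP exposure 15 min at 22 °C before imaging.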
row,Sequence,switch fluorescence ratio
1,CGCTGAATTT,0.975 ± 0.03
2,ATTCGGGGGG,0.99 ± 0.022
3,TATCGGGATT,1.02 ± 0.026
4,AAATATTGAG,1 ± 0.015
5,AAGTGTTAAT,0.9955 ± 0.0031
6,CGCCTGACAC,1.26 ± 0.0035
7,TGTTGGGCCC,1 ± 0.018
8,TTCTCAGGGG,1.12 ± 0.038
9,TCGCCGCTAT,2.61 ± 0.34
10,TTTTGGCCAT,0.995 ± 0.082
11,CCAAGGGAAA,0.9822 ± 0.0032
12,TTAGACGGGA,1.026 ± 0.0043
13,ATTTGATTTG,1 ± 0.046
14,AACAACATAG,1.02 ± 0.036
15,AGCGCGTCGC,0.955 ± 0.016
16,GGGATTAGCA,0.988 ± 0.042
17,GGCTAAGAGT,0.991 ± 0.02
18,TCGAGTAAAA,0.9902 ± 0.0039
19,AACGTTGGAG,1.02 ± 0.019
20,CACGGCACGA,1.36 ± 0.073
21,CGTTCAGGGG,1.16 ± 0.024
22,GGTTAAGGCA,1.022 ± 0.0034
23,GACGCTGTGC,3.6 ± 0.41

row,Sequence,switch fluorescence ratio
1,TACACGGGGT,1.05 ± 0.018
2,GCCGTTTTGG,1 ± 0.034
3,ACTGTCGGGC,1.03 ± 0.025
4,GGATTACGGT,1.01 ± 0.03
5,TTTAACATCA,0.984 ± 0.047
6,ATAGGTGTTG,1.02 ± 0.025
7,CTAGAGGGGG,0.9711 ± 0.0094
8,TACTAACATT,1.14 ± 0.019
9,AGAGGAAGGG,0.993 ± 0.01
10,AATGCTTTGG,1.007 ± 0.0095
11,CCTGTGAGTT,0.986 ± 0.012
12,TGCTATGAGG,1.01 ± 0.043
13,GAGATGGGTA,0.997 ± 0.027
14,CTTCTGGGCG,1.02 ± 0.032
15,TAGAAAAGGG,1.03 ± 0.031
16,ATCTTTACCT,1.26 ± 0.036
17,TATGGTTTAC,1 ± 0.017
18,TTAAGTAGGC,1.16 ± 0.19
19,TCGAGGGGTA,1 ± 0.07
20,GATTTTATTG,1.01 ± 0.017
21,TGGGGGCTAT,0.989 ± 0.053
22,AGGTATCAGA,0.972 ± 0.021
23,TGGATTTTGC,0.989 ± 0.029

row,Sequence,switch fluorescence ratio
1,TTAACGAACG,1.15 ± 0.083
2,CAGGGCTTGA,1.03 ± 0.093
3,ACACTTTTCG,1.01 ± 0.035
4,ACTGATTGGC,1.18 ± 0.18
5,GCATATTTTT,1.026 ± 0.0032
6,GGAATGTTTG,0.977 ± 0.035
7,AGATAAAAGG,0.998 ± 0.015
8,TGGATACACT,1.04 ± 0.032
9,TTAGCGTAGG,1.02 ± 0.0011
10,ATGGGTCAAT,1 ± 0.014
11,AAGGGTTGAG,0.981 ± 0.046
12,ATTGGATGTG,0.981 ± 0.019
13,GCAGAAAAAA,0.988 ± 0.028
14,GCGTTCAGGC,0.994 ± 0.063
15,GCGCCGGAG,1.0019 ± 0.00089
16,AAGATATTCT,1.027 ± 0.0091
17,GTTGACTTAA,1.02 ± 0.013
18,CCTTTTATTC,1.01 ± 0.03
19,CGAGGGTAGT,1.01 ± 0.025
20,TTATGGGATT,0.993 ± 0.019
21,GCGTTTCCTC,1.08 ± 0.033
22,CGCGAGATAT,1.03 ± 0.043
23,TTATATGTTA,1.03 ± 0.055

row,Sequence,switch fluorescence ratio
1,TTGTGAACTT,0.9794 ± 0.0046
2,GGCCAGCGGA,1.01 ± 0.024
3,GGGGGAAACT,1.013 ± 0.0073
4,TAAAGTGCAT,1.036 ± 0.0066
5,ACTGGGTGGC,1.01 ± 0.029
6,GGATGCTTTC,1.02 ± 0.026
7,TAGGCTGAAA,0.9906 ± 0.0024
8,ATTTTTGGGT,0.994 ± 0.031
9,TTTTTGCGGC,0.999 ± 0.03
10,GCAGTCATTA,1.037 ± 0.0019
11,GGCCGGCGTG,0.969 ± 0.031
12,GTTCGGCGGC,0.991 ± 0.016
13,CCGGGCCAGG,1.255 ± 0.0081
14,TTCAAAGTTT,0.993 ± 0.015
15,TTTATAAAAC,1.01 ± 0.051
16,TAACAGTGTG,1.04 ± 0.046
17,TGTACCTTTA,1.04 ± 0.038
18,AGATGTTGTT,1.01 ± 0.023
19,TTCCCGGGTG,1.53 ± 0.55
20,TGGTGGGGGA,0.987 ± 0.015
21,GTTGATCTGC,1 ± 0.029
22,TGTGTGGTTT,0.986 ± 0.036
23,GTTTATAAAC,0.973 ± 0.064

row,Sequence,switch fluorescence ratio
1,TTATATTTAG,0.988 ± 0.011
2,TAAGTTGGTG,0.976 ± 0.018
3,TGGGGAGAAC,1.055 ± 0.0077
4,GGGTTTGCTG,1.01 ± 0.076
5,TAGGGAATTA,1.01 ± 0.012
6,AGGCGGAGCT,0.9926 ± 0.0033
7,TCCATGGGAT,1.007 ± 0.0014
8,TATCTTAGGC,1.01 ± 0.027
9,AGTATCTTAC,1.03 ± 0.025
10,GGGAGGGTAT,1.01 ± 0.036
11,GTGAGGAGGG,0.959 ± 0.07
12,TCGTAATGTG,1.03 ± 0.033
13,TTAGGATTCG,1.02 ± 0.039
14,GACTGTTAGG,1.03 ± 0.016
15,TCAAAACTTG,1.01 ± 0.057
16,TTTGGTTTGT,1.1 ± 0.19
17,TATTGGTGGG,0.9663 ± 0.008
18,GAGGGATTCT,0.99037 ± 0.00064
19,GGGGGCAGAG,0.991 ± 0.035
20,GACGGGGAGA,1.06 ± 0.038
21,AGGCGACGTT,0.9931 ± 0.0069
22,GTTTGGCGT,1.03 ± 0.045
23,ATTGCAGCGG,1 ± 0.02

row,Sequence,switch fluorescence ratio
1,TCATCGGTTT,0.977 ± 0.017
2,TGAGCGGCAA,1.2 ± 0.22
3,ATGTAATATT,1.01 ± 0.033
4,GATCGGATGT,0.981 ± 0.011
5,GGGTGCGTTG,1.04 ± 0.024
6,CGTTTAAGCG,1.01 ± 0.038
7,CAGGGATTTG,0.9599 ± 0.0044
8,TTGTTATCGG,1.04 ± 0.04
9,TCGGTTGTGA,0.999 ± 0.011
10,CGGTAAGGCA,0.99 ± 0.017
11,AGATTGCCGT,1.01 ± 0.068
12,TAAAACAGCG,1.01 ± 0.012
13,CAGCTAAATT,1.02 ± 0.047
14,TTAAGGAGCA,1.05 ± 0.044
15,CGGATTCCCC,1.06 ± 0.011
16,TTTAAGGTAT,0.957 ± 0.023
17,GTTTGCAGGA,0.995 ± 0.027
18,TTATGTGCGA,1.02 ± 0.013
19,TTCTGTAGCG,1.06 ± 0.13
20,GCGTTTTTGG,0.998 ± 0.029
21,GGGAGAAAGT,0.9995 ± 0.0034
22,TTTGTGGCTT,1.38 ± 0.65
23,TTTATTTCTG,0.959 ± 0.02

row,Sequence,switch fluorescence ratio
1,ATAATTTCTG,0.99 ± 0.016
2,TTCTGTGTGG,0.981 ± 0.011
3,TCGGTGGAGC,1.02 ± 0.13
4,TTGTAAGATC,1.02 ± 0.029
5,TTTTACGCTG,1 ± 0.036
6,AACTGTGTTT,0.983 ± 0.04
7,AGATCCTCTA,1 ± 0.011
8,ACTCGGGGGA,1.018 ± 0.0035
9,ATTTTAACT,0.988 ± 0.013
10,AACTAGGCGC,0.9875 ± 0.0065
11,TTTCAGGGTC,1.15 ± 0.19
12,CGTCCGGGGA,1.56 ± 0.075
13,TAATTTGTGT,1.01 ± 0.014
14,CTGAATATTC,1.021 ± 0.0036
15,TAAAAAGTAC,1.02 ± 0.027
16,CATGTGCGAG,1.01 ± 0.021
17,GGTGATCGGC,0.986 ± 0.029
18,ATATTATCAG,0.986 ± 0.014
19,CAATCGACTC,1.047 ± 0.0037
